Legend:
[1] = target: HLA-B*07:02; assay: IEDB peptide-MHC binding, purified MHC/competitive/radioactivity; ≥ and ≤ were set here for values at or beyond the usual limits of such assays
[2] = target: HLA-B*35:01; assay: as above
[3] = target: HLA-B*51:01; assay: as above
[4] = target: HLA-B*53:01; assay: as above
[5] = target: HLA-B*54:01; assay: IEDB peptide-MHC binding, purified MHC/competitive/radioactivity; filed as Kd, often an IC50 or EC50 that approximates it; ≥ and ≤ were set here for values at or beyond the usual limits of such assays
[6] = target: HLA-B*54:01; assay: IEDB peptide-MHC binding, purified MHC/competitive/radioactivity; ≥ and ≤ were set here for values at or beyond the usual limits of such assays
[7] = target: HLA-B*35:01; assay: IEDB peptide-MHC binding, purified MHC/competitive/radioactivity; filed as Kd, often an IC50 or EC50 that approximates it; ≥ and ≤ were set here for values at or beyond the usual limits of such assays
[8] = target: HLA-B*53:01; assay: as above
[9] = target: HLA-B*07:02; assay: as above
[10] = target: HLA-B*51:01; assay: as above
[11] = source organism: Human immunodeficiency virus 1
[12] = source organism: Candida albicans
[13] = source organism: Human immunodeficiency virus type 1 (RF/HAT ISOLATE)
[14] = source organism: Hepatitis C virus (isolate Taiwan)
[15] = source organism: Human papillomavirus type 6b

Sequence CPLERFAEL has an IC50 ([1]; source organism: Homo sapiens) of 68 nM, an IC50 ([2]; source organism: Homo sapiens) of 103 nM and an IC50 ([3]; source organism: Homo sapiens) of 6.2 nM. It also gave an IC50 ([4]; source organism: Homo sapiens) of 198 nM and a Kd ([5]; source organism: Homo sapiens) of 1 µM.

With EPGPVTAQV the IC50 ([1]; source organism: Homo sapiens) was 902 nM, the IC50 ([3]; source organism: Homo sapiens) was 28 nM and the IC50 ([6]; source organism: Homo sapiens) was 476 nM. It also gave a Kd ([7]; source organism: Homo sapiens) of at least 25 µM and a Kd ([8]; source organism: Homo sapiens) of at least 25000 nM.

FAVRPQVPL showed an IC50 [2, 11] of 148 nM, an IC50 [3, 11] of 591 nM and a Kd [9, 11] of 1.3 µM. For the same sequence, the Kd [8, 11] was 6170 nM and the Kd [5, 11] was 4.25 µM.

With FPASFFIKL the IC50 [1, 12] was 14 nM, the IC50 [2, 12] was 15 nM and the IC50 [3, 12] was 8.7 nM. It also gave an IC50 [4, 12] of 6.7 nM and an IC50 [6, 12] of 15 nM.

FPISPIETV gave an IC50 [3, 13] of 147 nM, an IC50 [4, 13] of 251 nM and an IC50 [6, 13] of 9.8 nM. It also gave a Kd [9, 13] of 3.48 µM and a Kd [7, 13] of 1.05 µM.

Work on FPPEGVSIW yielded an IC50 ([3]; source organism: Homo sapiens) of 21 nM, an IC50 ([4]; source organism: Homo sapiens) of 16 nM and a Kd ([9]; source organism: Homo sapiens) of at least 25 µM. It also gave a Kd ([7]; source organism: Homo sapiens) of 4.24 µM and a Kd ([5]; source organism: Homo sapiens) of 3.85 µM.

For FPRFKFVWV, the IC50 [1, 12] was 51 nM, the IC50 [3, 12] was 136 nM and the IC50 [6, 12] was 17 nM. For the same sequence, the Kd [7, 12] was at least 25 µM and the Kd [8, 12] was 3510 nM.

Work on FPVRPQVPC yielded an IC50 [1, 11] of 380 nM, an IC50 [6, 11] of 65.8 nM and a Kd [7, 11] of 1.3 µM. For the same sequence, the Kd [10, 11] was 1300 nM and the Kd [8, 11] was 1300 nM.

Work on FPVRPQVPI yielded an IC50 [1, 11] of 22.4 nM, an IC50 [2, 11] of 118 nM and an IC50 [3, 11] of 14.8 nM. It also gave an IC50 [4, 11] of 30.2 nM and an IC50 [6, 11] of 1.6 nM.

In the case of FPVRPQVPL, the IC50 [3, 11] is reported as 679 nM and the IC50 [4, 11] is reported as 192 nM.

In the case of FPVRPQVPM, the IC50 [1, 11] is reported as 3.8 nM, the IC50 [2, 11] is reported as 13 nM and the IC50 [4, 11] is reported as 32.5 nM. It also gave an IC50 [6, 11] of 79 nM and a Kd [10, 11] of 1300 nM.

For FPVRPQVPQ, the IC50 [1, 11] was 380 nM, the IC50 [2, 11] was 394 nM and the IC50 [6, 11] was 79 nM. The Kd [10, 11] was 1300 nM and the Kd [8, 11] was 1300 nM.

In the case of FPVRPQVPT, the IC50 [1, 11] is reported as 380 nM, the IC50 [2, 11] is reported as 26 nM and the IC50 [6, 11] is reported as 1.8 nM. For the same sequence, the Kd [10, 11] was 1300 nM and the Kd [8, 11] was 1300 nM.

FPYLVAYQA gave an IC50 [3, 14] of 57 nM, a Kd [9, 14] of 18 µM and a Kd [8, 14] of 1710 nM.

In the case of HPEDTGQVF, the IC50 ([2]; source organism: Homo sapiens) is reported as 206 nM, the IC50 ([4]; source organism: Homo sapiens) is reported as 404 nM and the Kd ([10]; source organism: Homo sapiens) is reported as 1960 nM. The Kd ([5]; source organism: Homo sapiens) was at least 25 µM.

Work on IPEPEGPDA yielded a Kd ([9]; source organism: Homo sapiens) of at least 25 µM, a Kd ([7]; source organism: Homo sapiens) of at least 25 µM and a Kd ([10]; source organism: Homo sapiens) of 5500 nM. The Kd ([8]; source organism: Homo sapiens) was at least 25000 nM and the Kd ([5]; source organism: Homo sapiens) was at least 5 µM.

In the case of IPFLTKFKL, the IC50 [3, 15] is reported as 31 nM, the IC50 [4, 15] is reported as 581 nM and the IC50 [6, 15] is reported as 833 nM. It also gave a Kd [9, 15] of 2.39 µM and a Kd [7, 15] of 9 µM.

Work on IPLYRNGDF yielded an IC50 ([1]; source organism: Homo sapiens) of 60 nM, a Kd ([7]; source organism: Homo sapiens) of at least 25 µM and a Kd ([10]; source organism: Homo sapiens) of 5500 nM. For the same sequence, the Kd ([8]; source organism: Homo sapiens) was at least 25000 nM and the Kd ([5]; source organism: Homo sapiens) was at least 25 µM.

Reference: the Immune Epitope Database (IEDB)
